Results taken from US9150884B2, “Microbial conversion of glucose to styrene and its derivatives” (Arizona Board of Regents, a Body Corporate of the State of …, priority 2011, dated 2015).

Legend:
[1] = Whole cell CADC assay in recombinant E. coli BL21(DE3); assay type: cell-based; settings: whole cells in pH7 PBS, 1 g/L trans-cinnamic acid, 12 h
Protocol: (§1) Seed cultures consisting of 5 ml of LB broth containing 100 mg/L ampicillin were prepared of E. coli BL21(DE3) strains that were individually transformed with each of pTpad1-fdc1, pTpad1Sc, pTfdc1Sc, pTpdcLp, and pTpadCBs. These cultures were grown for 12 hours at 30° C. while agitating at 250 rpm. 1 mL of each culture was then used to inoculate 3×250 mL cultures flasks containing 50 mL of LB supplemented with 100 mg/L ampicillin. The culture was then grown at 30° C. while agitating at 250 rpm until it reached an OD600 of 0.6, at which point the cultures were induced by the addition of IPTG to a final concentration of 0.2 mM. Cultures were then grown for an additional 6 h. Cells were then collected by centrifuging in 50 ml Falcon tubes for 5 min at 1400×g and washed once with pH7 PBS (phosphate buffered saline) buffer. The entire cell pellet was resuspended in 10 ml pH7 PBS buffer and the appropriate substrate (trans-cinnamic acid or p-coumaric acid) added at a final concentration of 1 g/L. Enzyme activity was monitored by taking 1 mL samples from the culture at both the time of initiation as well as after 12 h of culture. All samples were then analyzed by HPLC using the methods described herein.

[2] = Whole cell PADC assay in recombinant E. coli BL21(DE3); assay type: cell-based; settings: whole cells in pH7 PBS, 1 g/L p-coumaric acid, 12 h
Protocol: as §1

B1: FDC1: ferulic acid decarboxylase encoded by FDC1 of S. cerevisiae, expressed in recombinant E. coli from pTfdc1Sc (protein, listed as Saccharomyces cerevisiae)
chain: MRKLNPALEFRDFIQVLKDEDDLIEITEEIDPNLEVGAIMRKAYESHLPAPLFKNLKGASKDLFSILGCPAGLRSKEKGDHGRIAHHLGLDPKTTIKEIIDYLLECKEKEPLPPITVPVSSAPCKTHILSEEKIHLQSLPTPYLHVSDGGKYLQTYGMWILQTPDKKWTNWSIARGMVVDDKHITGLVIKPQHIRQIADSWAAIGKANEIPFALCFGVPPAAILVSSMPIPEGVSESDYVGAILGESVPVVKCETNDLMVPATSEMVFEGTLSLTDTHLEGPFGEMHGYVFKSQGHPCPLYTVKAMSYRDNAILPVSNPGLCTDETHTLIGSLVATEAKELAIESGLPILDAFMPYEAQALWLILKVDLKGLQALKTTPEEFCKKVGDIYFRTKVGFIVHEIILVADDIDIFNFKEVIWAYVTRHTPVADQMAFDDVTSFPLAPFVSQSSRSKTMKGGKCVTNCIFRQQYERSFDYITCNFEKGYPKGLVDKVNENWKRYGYK
CADC activity (trans-cinnamic acid to styrene) [1]: activities on both p-coumaric and trans-cinnamic acid
activity on p-coumaric acid (to p-hydroxystyrene) [2]: activities on both p-coumaric and trans-cinnamic acid
